The source of these data is patent US20190169308A1 (ALLIGATOR BIOSCIENCE, published 2019).

By EC50 is commonly meant the concentration needed to bring the measured effect to its halfway point. A lower EC50 goes with higher potency in that assay. The koff is a measure of how fast the partners let go of each other. Lower therefore signals slow dissociation. As a reminder, the kon is a measure of how fast the partners come together. A higher kon goes with faster complex formation.

Assay [1] addresses T1, 5T4-Fc (human, UniProt Q13641 32-355, limits assumed).
T1 construct: obtained from Peter L. Stern, University of Manchester; also called h5T4-Fc; recombinant 5T4
T1 sequence (looked up): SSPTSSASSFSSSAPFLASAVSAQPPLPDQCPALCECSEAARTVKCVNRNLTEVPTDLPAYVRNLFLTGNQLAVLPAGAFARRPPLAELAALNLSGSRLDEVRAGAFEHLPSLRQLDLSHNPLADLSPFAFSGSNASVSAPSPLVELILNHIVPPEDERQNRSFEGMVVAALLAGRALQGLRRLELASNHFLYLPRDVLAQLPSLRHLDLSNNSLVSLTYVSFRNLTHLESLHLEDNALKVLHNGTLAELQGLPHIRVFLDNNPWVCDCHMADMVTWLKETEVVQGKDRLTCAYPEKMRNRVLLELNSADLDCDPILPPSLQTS
Put plainly: ELISA, coated 5T4-Fc. The protocol: ELISA was performed using a standard protocol. Plates (#655074, Greiner Bio-One GmbH, Germany) were pre-coated with 0.5 μg/ml 5T4-Fc (obtained from Peter L. Stern, University of Manchester) overnight. 5T4 antibodies were diluted from 6 to 1.5×10⁻³ μg/ml in 1:4 dilutions and added in duplicates of 50 μl to each well. Binding was detected with rabbit anti-h kappa L-chain-HRP (P0129, Dako Denmark) and the ELISA was developed with SuperSignal ELISA PICO Chemiluminescent substrate (Thermo Scientific Pierce, Rockford, Ill. USA) for 2-10 minutes and read in an automated microplate based multi-detection reader (FLUOstar OPTIMA, Netherlands).
(In general: In an ELISA, binding on a coated surface is turned into a signal by an enzyme label.)

For assay [2], the target named is T2, cynomolgus 5T4 on transfected CHO cells (Macaca mulatta (cynomolgus), UniProt F7CT46 35-420).
T2 construct: also called cyno5T4; cy5T4
T2 sequence: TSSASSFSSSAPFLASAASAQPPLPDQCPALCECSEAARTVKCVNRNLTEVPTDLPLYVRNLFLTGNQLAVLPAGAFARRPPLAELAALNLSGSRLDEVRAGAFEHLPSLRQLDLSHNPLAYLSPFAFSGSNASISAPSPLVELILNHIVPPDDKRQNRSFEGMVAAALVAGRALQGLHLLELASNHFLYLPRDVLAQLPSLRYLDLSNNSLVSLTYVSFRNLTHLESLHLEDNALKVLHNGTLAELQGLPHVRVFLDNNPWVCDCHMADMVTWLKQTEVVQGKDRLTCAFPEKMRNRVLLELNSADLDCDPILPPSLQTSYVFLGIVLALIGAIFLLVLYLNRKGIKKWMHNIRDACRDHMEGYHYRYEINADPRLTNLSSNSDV
Put plainly: flow cytometry, 5T4-transfected CHO cells. The protocol:
(§1) The potency of 5T4 antibodies in binding to cynomolgus 5T4 was determined by flow cytometry. CHO cells were stably transfected with […] (cynomolgus) 5T4. […] Samples were analysed either on a FACSCalibur or a FACSverse (BD Biosciences, Heidelberg, Germany) and mean fluorescence intensity (MFI) determined. […] To compare the EC50 values between human and cynomolgus 5T4, the cy5T4/hu5T4 ratio was calculated from the experiment with the full dose-response.
For orientation: Flow cytometry measures light scatter and fluorescence of single cells or particles in a stream.

Assay [3] has as its target T3, human 5T4 on transfected cells (human, UniProt Q13641 32-420).
T3 construct: whole, on cells; also called B16-5T4; CHOh5T4
T3 sequence (looked up): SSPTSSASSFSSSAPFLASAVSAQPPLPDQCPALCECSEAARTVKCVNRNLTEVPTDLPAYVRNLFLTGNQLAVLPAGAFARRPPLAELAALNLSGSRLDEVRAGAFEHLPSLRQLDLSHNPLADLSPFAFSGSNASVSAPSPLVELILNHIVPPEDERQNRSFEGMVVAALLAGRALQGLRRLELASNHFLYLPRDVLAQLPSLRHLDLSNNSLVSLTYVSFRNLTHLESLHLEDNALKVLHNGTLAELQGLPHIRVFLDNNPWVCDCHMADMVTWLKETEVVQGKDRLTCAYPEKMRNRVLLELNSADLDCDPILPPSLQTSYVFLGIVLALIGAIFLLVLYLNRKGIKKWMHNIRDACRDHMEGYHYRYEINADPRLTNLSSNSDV
Put plainly: flow cytometry, human 5T4-transfected CHO cells. The method, then: Analysis of 5T4 mAb binding with flow cytometry was performed using 5T4-transfected cell lines and as negative control, mock transfected cells. Three different transfected cell lines used were used for this study; B16, A9 and CHO, transfected either with a 5T4 construct or with an empty vector control construct. Cells were stained with 5T4 antibodies diluted in FACS buffer (PBS, 0.5% BSA and 0.02% NaN₃). […] Samples were analysed either on a FACSCalibur or a FACSverse (BD Biosciences, Heidelberg, Germany) and mean fluorescence intensity (MFI) determined.
In a new attempt to calculate EC50 with flow cytometry a 5T4 mAb dose response experiment was performed using CHO cells stably transfected with human 5T4.

Assay [4] addresses T2, cynomolgus 5T4 on transfected CHO cells. Put plainly: flow cytometry, cynomolgus 5T4-transfected CHO cells. The protocol:
as §1

The target in assay [5] is T4, 5T4 (SPR antigen) (UniProt Q13641 32-355, limits assumed, biotinylated on the MASS-1 platform).
T4 construct: also called biotinylated 5T4
T4 sequence (looked up): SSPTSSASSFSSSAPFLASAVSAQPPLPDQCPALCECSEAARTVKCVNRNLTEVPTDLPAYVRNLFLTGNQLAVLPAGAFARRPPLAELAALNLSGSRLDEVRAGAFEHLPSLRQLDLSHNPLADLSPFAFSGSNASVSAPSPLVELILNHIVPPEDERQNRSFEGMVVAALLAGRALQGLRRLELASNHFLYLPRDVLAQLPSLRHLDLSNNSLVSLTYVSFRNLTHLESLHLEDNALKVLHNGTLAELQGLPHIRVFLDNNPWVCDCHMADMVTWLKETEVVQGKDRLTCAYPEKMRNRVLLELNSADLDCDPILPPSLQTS
Put plainly: SPR Biacore 3000, amine-coupled 5T4, mAb injected (bivalent). The method, then: Binding kinetics of the 5T4-specific mAbs have been studied using two different SPR-based platforms, the Biacore 3000 (GE Healthcare) and the MASS-1 platform (Sierra Sensors). Briefly, 5T4 was captured at the sensor chip surface either via direct amine coupling (Biacore platform) or using a streptavidin coated chip and biotinylated 5T4 (MASS-1 platform). The different 5T4-specific mAbs were then injected over the chip in increasing concentrations and the association and dissociation rates studied in real time. A 1:1 Langmuir model was used for curve fitting.
In general terms: Surface plasmon resonance follows binding to a sensor surface in real time, without labels.

B1: 1210/1211 (antibody, V domains shown)
VH: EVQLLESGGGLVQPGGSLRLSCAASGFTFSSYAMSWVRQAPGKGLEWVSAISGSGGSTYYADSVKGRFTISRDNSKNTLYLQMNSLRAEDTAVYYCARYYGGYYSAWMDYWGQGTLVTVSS
VL: DIQMTQSPSSLSASVGDRVTITCRASQSISSYLNWYQQKPGKAPKLLIYAASSLQSGVPSRFSGSGSGTDFTLTISSLQPEDFATYYCQQTYGYLHTFGQGTKLEIK
In the case of B1, the values for the EC50 in assay [1], in assay [3] and in assay [4] were 480 pM, 810 pM and 700 pM, respectively. Besides, the “Ratio EC50cyno5T4/h5T4” value in assay [2] amounted to 0.9. Also, in assay [5], the Kd was determined as 200 pM. In assay [5], this molecule returned a koff of 0.0001 s⁻¹. For the same molecule, the association rate constant (kon) in assay [5] is 500000 M⁻¹ s⁻¹.

B2: 1206/1207 (antibody, V domains shown)
VH: EVQLLESGGGLVQPGGSLRLSCAASGFTFSGSSMSWVRQAPGKGLEWVSSIYYSGSGTYYADSVKGRFTISRDNSKNTLYLQMNSLRAEDTAVYYCARYGRNVHPYNLDYWGQGTLVTVSS
VL: DIQMTQSPSSLSASVGDRVTITCRASQSISSYLNWYQQKPGKAPKLLIYAASSLQSGVPSRFSGSGSGTDFTLTISSLQPEDFATYYCQQGYYYLPTFGQGTKLEIK
As for B2, the EC50 in assay [1] was 640 pM; in assay [3] it was 510 pM; in assay [4] it was 1530 pM. The “Ratio EC50cyno5T4/h5T4” value in assay [2] is 3. For the same molecule, the Kd in assay [5] was 2300 pM. In assay [5], this molecule displayed a koff of 0.00028 s⁻¹. The molecule further yielded a kon in assay [5] of 130000 M⁻¹ s⁻¹.
